Laboratory results taken from patent US7521047.

What was measured:
[1] = target: HLA-DR on LG-2 cells (human); assay: flow cytometry, LG-2 cells stained with FITC-labelled L243 (HLA-DR expression)
[2] = target: HLA-DR on NALM-1 cells (human); assay: flow cytometry, NALM-1 cells stained with FITC-labelled L243 (HLA-DR expression)
[3] = target: HLA-DR on LP-1 cells (human); assay: flow cytometry, LP-1 cells stained with FITC-labelled L243 (HLA-DR expression)
[4] = target: HLA-DR on KARPAS-422 cells (human); assay: flow cytometry, KARPAS-422 cells stained with FITC-labelled L243 (HLA-DR expression)
[5] = target: HLA-DR on BONNA-12 cells (human); assay: flow cytometry, BONNA-12 cells stained with FITC-labelled L243 (HLA-DR expression)
[6] = target: HLA-DR on HC-1 cells (human); assay: flow cytometry, HC-1 cells stained with FITC-labelled L243 (HLA-DR expression)
[7] = target: HLA-DR on MN-60 cells (human); assay: flow cytometry, MN-60 cells stained with FITC-labelled L243 (HLA-DR expression)
[8] = target: HLA-DR on KARPAS-299 cells (human); assay: flow cytometry, KARPAS-299 cells stained with FITC-labelled L243 (HLA-DR expression)
[9] = target: HLA-DR on HD-MY-Z cells (human); assay: flow cytometry, HD-MY-Z cells stained with FITC-labelled L243 (HLA-DR expression)
[10] = target: HLA-DR on MHH-PREB-1 cells (human); assay: flow cytometry, MHH-PREB-1 cells stained with FITC-labelled L243 (HLA-DR expression)
[11] = target: HLA-DR on HDLM-2 cells (human); assay: flow cytometry, HDLM-2 cells stained with FITC-labelled L243 (HLA-DR expression)
[12] = target: HLA-DR on KM-H2 cells (human); assay: flow cytometry, KM-H2 cells stained with FITC-labelled L243 (HLA-DR expression)
[13] = target: HLA-DR on SR-786 cells (human); assay: flow cytometry, SR-786 cells stained with FITC-labelled L243 (HLA-DR expression)
[14] = target: HLA-DR on BJAB cells (human); assay: cell-based or functional assay
[15] = target: HLA-DR on EOL-1 cells (human); assay: cell-based or functional assay
[16] = target: HLA-DR on KARPAS-422 cells (human); assay: cell-based or functional assay
[17] = target: HLA-DR on KARPAS-299 cells (human); assay: cell-based or functional assay
[18] = target: HLA-DR on RAJI cells (human); assay: cell-based or functional assay
[19] = target: HLA-DR on HDLM-2 cells (human); assay: cell-based or functional assay
[20] = target: HLA-DR on RPMI-8226 cells (human); assay: cell-based or functional assay
[21] = target: HLA-DR on MHH-PREB-1 cells (human); assay: cell-based or functional assay
[22] = target: HLA-DR on HD-MY-Z cells (human); assay: cell-based or functional assay
[23] = target: HLA-DR on BONNA-12 cells (human); assay: cell-based or functional assay
[24] = target: HLA-DR on LG-2 cells (human); assay: cell-based or functional assay
[25] = target: HLA-DR on KM-H2 cells (human); assay: cell-based or functional assay
[26] = target: HLA-DR on ARH-77 cells (human); assay: cell-based or functional assay
[27] = target: HLA-DR on MHH-CALL-4 cells (human); assay: cell-based or functional assay
[28] = target: HLA-DR on SR-786 cells (human); assay: cell-based or functional assay
[29] = target: HLA-DR on MHH-CALL-2 cells (human); assay: cell-based or functional assay
[30] = target: HLA-DR on L1236 cells (human); assay: cell-based or functional assay
[31] = target: HLA-DR on L-363 cells (human); assay: cell-based or functional assay
[32] = target: HLA-DR on MN-60 cells (human); assay: cell-based or functional assay
[33] = target: HLA-DR on LP-1 cells (human); assay: cell-based or functional assay
[34] = target: HLA-DR on L-428 cells (human); assay: cell-based or functional assay
[35] = target: HLA-DR on GRANTA-519 cells (human); assay: cell-based or functional assay
[36] = target: HLA-DR on DOHH-2 cells (human); assay: cell-based or functional assay
[37] = target: HLA-DR on NALM-1 cells (human); assay: cell-based or functional assay
[38] = target: HLA-DR on HC-1 cells (human); assay: cell-based or functional assay
[39] = target: HLA-DR on MHH-CALL-4 cells (human); assay: flow cytometry, MHH-CALL-4 cells stained with FITC-labelled L243 (HLA-DR expression)
[40] = target: HLA-DR on EOL-1 cells (human); assay: flow cytometry, EOL-1 cells stained with FITC-labelled L243 (HLA-DR expression)
[41] = target: HLA-DR on RPMI-8226 cells (human); assay: flow cytometry, RPMI-8226 cells stained with FITC-labelled L243 (HLA-DR expression)
[42] = target: HLA-DR (allele and form not stated); assay: not stated (Z. A. Nagy, unpublished)
[43] = target: HLA-DR on L1236 cells (human); assay: flow cytometry, L1236 cells stained with FITC-labelled L243 (HLA-DR expression)
[44] = target: HLA-DR on L-363 cells (human); assay: flow cytometry, L-363 cells stained with FITC-labelled L243 (HLA-DR expression)
[45] = target: HLA-DR on ARH-77 cells (human); assay: flow cytometry, ARH-77 cells stained with FITC-labelled L243 (HLA-DR expression)
[46] = target: HLA-DR on L-428 cells (human); assay: flow cytometry, L-428 cells stained with FITC-labelled L243 (HLA-DR expression)
[47] = target: HLA-DR on DOHH-2 cells (human); assay: flow cytometry, DOHH-2 cells stained with FITC-labelled L243 (HLA-DR expression)
[48] = target: HLA-DR on RAJI cells (human); assay: flow cytometry, RAJI cells stained with FITC-labelled L243 (HLA-DR expression)
[49] = target: HLA-DR on BJAB cells (human); assay: flow cytometry, BJAB cells stained with FITC-labelled L243 (HLA-DR expression)
[50] = target: HLA-DR on GRANTA-519 cells (human); assay: flow cytometry, GRANTA-519 cells stained with FITC-labelled L243 (HLA-DR expression)
[51] = target: chimeric 0401-IE class II molecule on cells of transgenic mice (human/murine chimera); assay: cell-based or functional assay
[52] = target: HLA-DR on chronic lymphoid leukemia (CLL) cells of patients (human); assay: cell-based or functional assay

Sequence of MS-GPC-8 IgG4 (antibody) (VH): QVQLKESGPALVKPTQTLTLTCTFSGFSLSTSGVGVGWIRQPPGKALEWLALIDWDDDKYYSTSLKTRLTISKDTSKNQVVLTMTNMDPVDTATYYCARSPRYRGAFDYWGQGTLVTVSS
Sequence of MS-GPC-8 IgG4 (antibody) (VL): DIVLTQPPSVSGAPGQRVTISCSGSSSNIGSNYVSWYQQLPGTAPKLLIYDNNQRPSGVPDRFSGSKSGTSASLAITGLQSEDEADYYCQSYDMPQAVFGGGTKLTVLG
Sequence of L243 (antibody) (VH): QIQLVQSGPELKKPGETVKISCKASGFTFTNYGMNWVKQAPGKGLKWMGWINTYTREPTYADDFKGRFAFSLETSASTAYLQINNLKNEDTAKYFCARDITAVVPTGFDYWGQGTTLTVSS
Sequence of L243 (antibody) (VL): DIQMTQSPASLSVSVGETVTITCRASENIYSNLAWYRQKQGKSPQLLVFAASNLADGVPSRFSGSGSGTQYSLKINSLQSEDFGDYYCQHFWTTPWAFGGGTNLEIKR

L243 (antibody)
MFL (mean fluorescence intensity) [1]: 458 MFL
MFL (mean fluorescence intensity) [2]: 1080 MFL
MFL (mean fluorescence intensity) [3]: 315 MFL
MFL (mean fluorescence intensity) [4]: 211 MFL
MFL (mean fluorescence intensity) [5]: 2430 MFL
MFL (mean fluorescence intensity) [6]: 372 MFL
MFL (mean fluorescence intensity) [7]: 1120 MFL
MFL (mean fluorescence intensity) [8]: 798 MFL
MFL (mean fluorescence intensity) [9]: 79 MFL
MFL (mean fluorescence intensity) [10]: 175 MFL
MFL (mean fluorescence intensity) [11]: 326 MFL
MFL (mean fluorescence intensity) [12]: 619 MFL
MFL (mean fluorescence intensity) [13]: 142 MFL
% Killing by mAb, 200 nM, 4 h [14]: 53%
% Killing by mAb, 200 nM, 4 h [15]: 22%
% Killing by mAb, 200 nM, 4 h [16]: 25%
% Killing by mAb, 200 nM, 4 h [17]: 78%
% Killing by mAb, 200 nM, 4 h [18]: 69%
% Killing by mAb, 200 nM, 4 h [19]: 77%
% Killing by mAb, 200 nM, 4 h [20]: 6%
% Killing by mAb, 200 nM, 4 h [21]: 3%
% Killing by mAb, 200 nM, 4 h [22]: 35%
% Killing by mAb, 200 nM, 4 h [23]: 92%
% Killing by mAb, 200 nM, 4 h [24]: 79%
% Killing by mAb, 200 nM, 4 h [25]: 81%
% Killing by mAb, 200 nM, 4 h [26]: 88%
% Killing by mAb, 200 nM, 4 h [27]: 35%
% Killing by mAb, 200 nM, 4 h [28]: 3%
% Killing by mAb, 200 nM, 4 h [29]: 5%
% Killing by mAb, 200 nM, 4 h [30]: 52%
% Killing by mAb, 200 nM, 4 h [31]: 6%
% Killing by mAb, 200 nM, 4 h [32]: 46%
% Killing by mAb, 200 nM, 4 h [33]: 12%
% Killing by mAb, 200 nM, 4 h [34]: 82%
% Killing by mAb, 200 nM, 4 h [35]: 83%
% Killing by mAb, 200 nM, 4 h [36]: 29%
% Killing by mAb, 200 nM, 4 h [37]: 44%
% Killing by mAb, 200 nM, 4 h [38]: 88%
MFL (mean fluorescence intensity) [39]: 348 MFL
MFL (mean fluorescence intensity) [40]: 536 MFL
MFL (mean fluorescence intensity) [41]: 19 MFL
Kd [42]: 10 nM
MFL (mean fluorescence intensity) [43]: 41 MFL
MFL (mean fluorescence intensity) [44]: 49 MFL
MFL (mean fluorescence intensity) [45]: 301 MFL
MFL (mean fluorescence intensity) [46]: 244 MFL
MFL (mean fluorescence intensity) [47]: 444 MFL
MFL (mean fluorescence intensity) [48]: 617 MFL
MFL (mean fluorescence intensity) [49]: 338 MFL
MFL (mean fluorescence intensity) [50]: 1460 MFL

MS-GPC-8 IgG4 (antibody)
% Killing by mAb, 50 nM, 4 h [14]: 49%
% Killing by mAb, 50 nM, 4 h [15]: 36%
% Killing by mAb, 50 nM, 4 h [16]: 51%
% Killing by mAb, 50 nM, 4 h [20]: 14%
% Killing by mAb, 50 nM, 4 h [21]: 2%
% Killing by mAb, 50 nM, 4 h [22]: 49%
IC50 of inhibition of IL-2 secretion from T-Hyb 1 cells [51]: 11 nM
Maximum inhibition(%) of IL-2 secretion [51]: 100%
viable CLL cells after 24 hours, 100 nM IgG (told for all three human IgGs) [52]: 33%
viable activated CLL cells after 4 hours, 100 nM IgG (average for all patient samples and antibodies) [52]: 24%
% Killing by mAb, 50 nM, 4 h [25]: 75%
% Killing by mAb, 50 nM, 4 h [27]: 43%
% Killing by mAb, 50 nM, 4 h [28]: 1%
% Killing by mAb, 50 nM, 4 h [30]: 44%
% Killing by mAb, 50 nM, 4 h [31]: 26%
% Killing by mAb, 50 nM, 4 h [32]: 71%
% Killing by mAb, 50 nM, 4 h [33]: 61%
% Killing by mAb, 50 nM, 4 h [35]: 76%
% Killing by mAb, 50 nM, 4 h [36]: 58%
